Data taken from IntAct's records for PubMed 21135508.

B1: Myotubularin (Homo sapiens), Q13496 (parent)
chain: MASASTSKYNSHSLENESIKRTSRDGVNRDLTEAVPRLPGETLITDKEVIYICPFNGPIKGRVYITNYRLYLRSLETDSSLILDVPLGVISRIEKMGGATSRGENSYGLDITCKDMRNLRFALKQEGHSRRDMFEILTRYAFPLAHSLPLFAFLNEEKFNVDGWTVYNPVEEYRRQGLPNHHWRITFINKCYELCDTYPALLVVPYRASDDDLRRVATFRSRNRIPVLSWIHPENKTVIVRCSQPLVGMSGKRNKDDEKYLDVIRETNKQISKLTIYDARPSVNAVANKATGGGYESDDAYHNAELFFLDIHNIHVMRESLKKVKDIVYPNVEESHWLSSLESTHWLEHIKLVLTGAIQVADKVSSGKSSVLVHCSDGWDRTAQLTSLAMLMLDSFYRSIEGFEILVQKEWISFGHKFASRIGHGDKNHTDADRSPIFLQFIDCVWQMSKQFPTAFEFNEQFLIIILDHLYSCRFGTFLFNCESARERQKVTERTVSLWSLINSNKEKFKNPFYTKEINRVLYPVASMRHLELWVNYYIRWNPRIKQQQPNPVEQRYMELLALRDEYIKRLEELQLANSAKLSDPPTSPSSPSQMMPHVQTHF

Variants of: B1
Conditions: with desm_human DES

Effect of a mutation on the interaction, disrupting interaction:
R184G
D278A
P205L
R241C
